Non-standard residues stand in square brackets, D forms with d. Primed or numbered codes have the meaning given here. No end group written: not given here. Me2a″ = asymmetric dimethylarginine (Rme2a); Arg(Me2a) = CN(C)C(=N)NCCC[C@H](N)C(=O)O; Lys(Me3) = C[N+](C)(C)CCCC[C@H](N)C(=O)O; Arg(Me2s) = CN=C(NC)NCCC[C@H](N)C(=O)O; pT = C[C@@H](OP(=O)(O)O)[C@H](N)C(=O)O; Me2a = asymmetric dimethyl (on Arg); Lys(Me2) = CN(C)CCCC[C@H](N)C(=O)O; Me2s = symmetric dimethyl (on Arg); pS = N[C@@H](COP(=O)(O)O)C(=O)O; Lys(Me) = CNCCCC[C@H](N)C(=O)O; Me3″ = trimethyl lysine (Kme3)
T1: Bdf1 bromodomain 1 (GST-tagged, WT) (Saccharomyces cerevisiae (strain ATCC …, UniProt P35817))
T1 chain: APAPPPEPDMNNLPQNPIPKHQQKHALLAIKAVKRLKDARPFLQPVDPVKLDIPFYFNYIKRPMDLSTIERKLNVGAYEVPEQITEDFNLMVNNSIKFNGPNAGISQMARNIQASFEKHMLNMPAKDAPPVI

T2: Bdf1 bromodomain 2 (GST-tagged, WT) (Saccharomyces cerevisiae (strain ATCC …, UniProt P35817))
T2 chain: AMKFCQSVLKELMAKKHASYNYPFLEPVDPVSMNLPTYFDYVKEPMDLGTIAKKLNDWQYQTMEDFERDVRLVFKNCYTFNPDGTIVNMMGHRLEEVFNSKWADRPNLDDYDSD


Tests used:
[1] = target: T1, Bdf1 bromodomain 1 (GST-tagged, WT); test: histone peptide array probed with recombinant GST-bromodomain, signal normalised to myc peptide control
[2] = target: T2, Bdf1 bromodomain 2 (GST-tagged, WT); test: as above

| binding score [1] | binding score [2] | Binder |
| --- | --- | --- |
| 0.00592 | 0 | ARTKQTARKSTGGKAPRKQ (A R T Kme2 Q T A Rme2s Kme3 S T G G K A P R K Q) |
| 0 | 0.00167 | PRKQLATKAAR(Me2a″)K(Me3″)SAPATGG |
| 0.00197 | 0.00285 | ARTKQTARKSTGGKAPRKQ (A Rme2a T Kme1 Q T A Rme2a Kme3 S T G G K A P R K Q) |
| 0 | 0 | PRKQLATKAA[Arg(Me2a)]K[pS]APATGG |
| 0 | 0 | ARTKQTARKSTGGKAPRKQ (A Rme2s pT Kme2 Q T A R K S T G G K A P R K Q) |
| 0 | 0.00679 | AR[pT]K(Me)QTARKSTGGKAPRKQ |
| 0.0247 | 0.0265 | ARTKQTARKSTGGKAPRKQ (A R T Kme1 Q T A Rme2s Kac S T G G K A P R K Q) |
| 0.00628 | 0 | ARTKQTARKSTGGKAPRKQ (A Rme2s T Kme1 Q T A Rme2a Kme3 S T G G K A P R K Q) |
| 0.00897 | 0 | SGRGKGGKGLGKGGAKRHR (histone peptides carry modifications given inline in the sequence and in columns 4-7 (Kac, Kme1/2/3, Rme2a/s, Cit, pS/pT); N-terminus free or acetylated) |
| 0.00897 | 0 | ARTKQTARKSTGGKAPRKQ (A Rme2a T Kme2 Q T A Rme2a Kme1 S T G G K A P R K Q) |
| 0.123 | 0.275 | SGRGKGGKGLGKGGAKRHR (S G Rme2s G Kac G G Kac G L G K G G A K R H R) |
| 0.0104 | 0.0385 | ARTKQTARKSTGGKAPRKQ (A Rme2s T Kme3 Q T A Rme2s Kac S T G G K A P R K Q) |
| 0.00287 | 0.00482 | ARTKQTARKSTGGKAPRKQ (A R T Kac Q T A Rme2s Kme3 S T G G K A P R K Q) |
| 0.00628 | 0.00561 | ART[Lys(Me3)]QTA[Arg(Me2s)][Lys(Me2)]STGGKAPRKQ |
| 0.000897 | 0.00364 | ARTKQTARKSTGGKAPRKQ (A R T K Q T A R Kac S T G G K A P R K Q) |
| – | 0 | ARTKQTAR(Me2a)K(Me)STGGKAPRKQ |
| 0.0203 | 0.0237 | SGRGKGGKGLGKGGAKRHR (S G R G K G G Kac G L G K G G A K R H R) |
| 0 | 0.0707 | SGRGKGGKGLGKGGAKRHR (S G Rme2a G Kac G G K G L G K G G A K R H R) |
| 0.00538 | 0.0062 | ARTKQTARKSTGGKAPRKQ (A Rme2a T Kme1 Q T A R Kme2 S T G G K A P R K Q) |
| 0.00161 | 0.00895 | AR[pT][Lys(Me2)]QTARKSTGGKAPRKQ |
| 0.206 | 0.21 | SGRGKGGKGLGKGGAKRHR (S G R G K G G K G L G Kac G G A Kac R H R) |
| 0.0247 | 0.00305 | SGRGKGGKGLGKGGAKRHR (S G Rme2a G K G G K G L G K G G A K R H R) |
| 0.108 | 0.209 | ARTKQTARKSTGGKAPRKQ (A R T K Q T A R Kac S T G G Kac A P R K Q) |
| – | 0 | ARTKQTA[Arg(Me2a)]K[pS]TGGKAPRKQ |
| 0.00699 | 0.00207 | A[Arg(Me2a)]T[Lys(Me)]QTARK(Ac)STGGKAPRKQ |
| 0 | 0.00246 | A[Arg(Me2a)][pT][Lys(Me2)]QTARKSTGGKAPRKQ |

| binding score [1] | binding score [2] | Binder |
| --- | --- | --- |
| 0.561 | 0.944 | SGRGKGGKGLGKGGAKRHR (S G R G Kac G G Kac G L G Kac G G A Kac R H R) |
| 0.00789 | 0 | PRKQLATKAA[Arg(Me2a)][Lys(Me2)]SAPATGG |
| – | 0 | ARTKQTA[Arg(Me2a)]KS[pT]GGKAPRKQ |
| 0.0052 | 0.00915 | ARTKQTA[Arg(Me2s)][Lys(Me2)]S[pT]GGKAPRKQ |
| 0 | 0.00895 | A[Arg(Me2s)]T[Lys(Me3)]QTAR[Lys(Me)]STGGKAPRKQ |
| 0.00789 | 0 | A[Arg(Me2s)]T[Lys(Me3)]QTA[Arg(Me2s)][Lys(Me3)]STGGKAPRKQ |
| 0.0183 | 0.0345 | SGRGKGGKGLGKGGAKRHR (S G Rme2a G K G G Kac G L G K G G A K R H R) |
| 0 | 0 | ARTKQTARKSTGGKAPRKQ (A R T K Q T A Rme2a K S T G G K A P R K Q) |
| 0.0231 | 0.0206 | A[Arg(Me2s)][pT]K(Ac)QTARKSTGGKAPRKQ |
| 0 | 0 | ARTKQTARKSTGGKAPRKQ (A Rme2a T Kme3 Q T A Rme2a Kme1 S T G G K A P R K Q) |
| 0.0387 | 0.0867 | AR(Me2a″)TK(Ac)QTAR(Me2a″)K(Ac)STGGKAPRKQ |
| 0 | 0.00915 | PRKQLATKAARK(Ac)SAPATGG |
| 0.00197 | 0 | A[Arg(Me2s)]T[Lys(Me3)]QTA[Arg(Me2a)][Lys(Me2)]STGGKAPRKQ |
| 0.00323 | 0.00423 | ARTKQTARKSTGGKAPRKQ (A R T Kac Q T A Rme2a Kme1 S T G G K A P R K Q) |
| 0 | – | A[Arg(Me2a)][pT]KQTARKSTGGKAPRKQ |
| 0.00161 | 0.00561 | AR(Me2s)TK(Ac)QTAR(Me2s)K(Me)STGGKAPRKQ |
| 0 | 0.006 | ARTKQTARKSTGGKAPRKQ (A R T Kme2 Q T A R K S T G G K A P R K Q) |
| 0.0095 | 0.00462 | A[Arg(Me2a)]TKQTARKSTGGKAPRKQ |
| 0 | 0 | PRKQLATKAAR[Lys(Me3)][pS]APATGG |
| 0 | 0.00266 | PDPAKSAPAPKKGSKKAVT (not fully specified) [H2B 1-19] |
| 0 | 0 | ARTKQTA[Arg(Me2a)][Lys(Me3)][pS]TGGKAPRKQ |
| 0 | 0.00502 | A[Arg(Me2s)][pT]KQTARKSTGGKAPRKQ |
| 0.00538 | 0.00521 | ARTKQTARKSTGGKAPRKQ (A Rme2s T Kac Q T A Rme2s Kme3 S T G G K A P R K Q) |
| 0 | 0 | RKSAPATGGVKKPHRYRPG (R K S A P A T G G V Kme2 K P H R Y R P G) [H3 26-45] |
| 0.00879 | 0.00364 | ARTKQTARKSTGGKAPRKQ (A R T Kme1 Q T A Rme2s Kme2 S T G G K A P R K Q) |

Source: paper PMC5261807 (2017)
